Source: US9404098, “Method for cleaving a target RNA using a Cas6 polypeptide” (University of Georgia Research Foundation, Inc.)
Where a chain is given by its changes, count along the chain named.

What was measured:
PfCas6 (PF1131) [1] = target: T1, PfCas6 (PF1131) (Pyrococcus furiosus, UniProt Q8U1S4 SEQ:1-264); assay: EMSA; binding abolished; up to 500 nM; settings: tags: N-terminal 6xHis; label: 32P uniform
T1 sequence: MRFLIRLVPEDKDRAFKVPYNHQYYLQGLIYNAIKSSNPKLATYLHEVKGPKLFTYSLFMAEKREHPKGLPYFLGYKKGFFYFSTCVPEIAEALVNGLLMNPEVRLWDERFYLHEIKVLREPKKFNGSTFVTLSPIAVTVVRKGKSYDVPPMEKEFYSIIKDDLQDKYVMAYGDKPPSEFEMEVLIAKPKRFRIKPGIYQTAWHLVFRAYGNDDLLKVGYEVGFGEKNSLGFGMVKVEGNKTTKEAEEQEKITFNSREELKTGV
Method: (§1) Typically, identical reaction conditions were used to assay the ability of PfCas6 protein to bind to and to cleave substrate RNAs. These reactions were initiated by incubating 0.05 μmol of ^32P-radiolabeled RNAs (either uniformly or 5'-end-labeled) with up to 1 (as indicated in the figure legends) of PfCas6 protein in 20 mM HEPES-KOH (pH 7.0), 250 mM KCl, 0.75 mM DTT, 1.5 mM MgCl_2, 5 μg of E. coli tRNA, and 10% glycerol in a 20-μL reaction volume for 30 minutes at 70° C. Half of the reactions were directly run on native 8% polyacrylamide gels to assay RNA binding by gel mobility shift essentially as described (Baker et al., 2005. Genes & Dev. 19: 1238-1248). […] Gels were dried and the radiolabeled RNAs visualized by phosphorimaging.
(§2) Figure 4: FIG. 4. CRISPR repeat sequence requirements for PfCas6 binding. (A) Detailed analysis of binding with a series of CRISPR-derived RNAs and mutants. The left panel illustrates the RNAs tested, with repeat (R) and invader targeting (ψ) sequences, and PfCas6 cleavage site (dashed lines) indicated. The shaded portion of j denotes an insertion, dashed block denotes an internal deletion, and The shaded portions of **, e, f, and k denote substitutions (with complementary sequence). DNA indicates a DNA repeat sequence substrate. PfCas6 binding is summarized relative to binding to the 5' cleavage product (++++). […]

PfCas6 (PF1131) [2] = target: T1, PfCas6 (PF1131); assay: EMSA; 70 C; settings: tags: N-terminal 6xHis
Method: as §1
Figure 4: FIG. 4. CRISPR repeat sequence requirements for PfCas6 binding. (A) Detailed analysis of binding with a series of CRISPR-derived RNAs and mutants. The left panel illustrates the RNAs tested, with repeat (R) and invader targeting (ψ) sequences, and PfCas6 cleavage site (dashed lines) indicated. The shaded portion of j denotes an insertion, dashed block denotes an internal deletion, and The shaded portions of **, e, f, and k denote substitutions (with complementary sequence). DNA indicates a DNA repeat sequence substrate. PfCas6 binding is summarized relative to binding to the 5' cleavage product (++++). Corresponding RNA diagrams and data panels are designated with lowercase letters. The right panels show gel mobility shift analysis of the indicated RNAs with increasing concentrations (0, 1, 50, 200, and 500 nM) of PfCas6. Substrates are uniformly radiolabeled except for those shown in panels a, b, c, and 1, which are 5'-end-labeled. (B) PfCas6 interacts with the gel-purified 5' cleavage product.

PfCas6 (PF1131) [3] = target: T1, PfCas6 (PF1131); assay: footprint; nt 2-8 protected from Pb(II); nt 3, 5 and 8 from RNase A; no 3' region protection; 500 mM KCl; settings: tags: N-terminal 6xHis; label: 32P (5', 3' or uniform); potential weak hairpin, mostly unstructured in solution
Description: Size markers include 5' end-labeled RNA markers (M) and alkaline hydrolysis ladders (OH). Bars along right side of each gel indicate strong protections. (B) 5' end-labeled CRISPR repeat RNA was used for lead-induced and RNase A cleavage as was done in (A). […] (C) A summary of cleavage protection is shown. The Cas6 cleavage site is indicated by an asterisk (*), and the nucleotides protected from cleavage are shown by the bars above and below the sequence FIG. 10. Lead-induced and RNase A cleavage footprinting with CRISPR repeat RNA and PfCas6. (A) 3' end labeled CRISPR repeat RNA was incubated in the absence (RNA) or presence of increasing concentrations of PfCas6 (indicated in μM) and then subjected to RNase A cleavage (left panel) or lead-induced cleavage (right panel). […] Size markers include 5' end-labeled RNA markers (M) and alkaline hydrolysis ladders (OH). Bars along right side of each gel indicate strong protections. (B) 5' end-labeled CRISPR repeat RNA was used for lead-induced and RNase A cleavage as was done in (A). […] (C) A summary of cleavage protection is shown. The Cas6 cleavage site is indicated by an asterisk (*), and the nucleotides protected from cleavage are shown by the bars above and below the sequence (SEQ ID NO: 238). Figure 10:
Specifically, nucleotides 2-8 were protected from lead induced cleavage in a Cas6 concentration dependent manner. […]

PfCas6 K52A = target: T2, PfCas6 K52A (Pyrococcus furiosus, UniProt Q8U1S4 SEQ:1-264, K52A); assay: cleavage_in_vitro; 500 nM; settings: tags: N-terminal 6xHis; label: 32P (5', 3' or uniform); potential weak hairpin, mostly unstructured in solution
T2 sequence: T1 sequence with K52A
Method: (§3) RNA-binding and cleavage reactions. RNA binding and cleavage reactions were carried out as described in example 1. Briefly, 0.05 μmol of uniformly ^32P-labeled RNA was incubated in the absence (free RNA) or presence of increasing concentrations of Cas6 (as indicated in figure legends) in buffer A for 30 minutes at 65-70° C. Half of each reaction was run on 8% native polyacrylamide gels to assess RNA binding by gel mobility shift analysis. RNA cleavage was assessed by separation of the RNAs on denaturing, 7 M urea containing, 15% polyacrylamide gels following PCI extraction and ethanol precipitation. For analysis of native Cas6 cleavage activity, either ~40 μg of whole cell extract (WCE) or supernatant from an immunoprecipitation reaction (see below) was incubated with 0.05 μmol of uniformly ^32P labeled RNA for 30 minutes at 70° C. Alternatively, 10 μL of resin from an immunoprecipitation reaction (see below) was added. In this case, samples were mixed every five minutes by pipetting up and down during the 30 minute incubation at 70° C. The gels were dried and RNAs visualized by phosphor imaging. Quantitation of cleavage was performed using ImageQuant™ TL software (GE Life Sciences).
(§4) Figure 11: FIG. 11. Cleavage activity of Cas6 mutants. […] The 5' and 3' cleavage products are indicated. (B) Purified wild type (wt) and mutant Cas6 proteins (as indicated above) were separated by SDS-PAGE. Molecular weight markers are indicated in kDa.
(§5) Mutation of any of the three triad amino acids led to a significant decrease or complete loss of cleavage activity relative to wild type Cas6 (FIG. 11A).

PfCas6 Y31F = target: T3, PfCas6 Y31F (Pyrococcus furiosus, UniProt Q8U1S4 SEQ:1-264, Y31F); assay: cleavage_in_vitro; 500 nM; settings: tags: N-terminal 6xHis; label: 32P (5', 3' or uniform); potential weak hairpin, mostly unstructured in solution
T3 sequence: T1 sequence with Y31F
Method: as §3, §4, §5

PfCas6 K52E = target: T4, PfCas6 K52E (Pyrococcus furiosus, UniProt Q8U1S4 SEQ:1-264, K52E); assay: cleavage_in_vitro; 500 nM; settings: tags: N-terminal 6xHis; label: 32P (5', 3' or uniform); potential weak hairpin, mostly unstructured in solution
T4 sequence: T1 sequence with K52E
Method: as §3, §4, §5

PfCas6 (PF1131) [4] = target: T1, PfCas6 (PF1131); assay: EMSA; up to 500 nM; settings: tags: N-terminal 6xHis; label: 5' 32P
Method: as §1, §2

PfCas6 (PF1131) [5] = target: T1, PfCas6 (PF1131); assay: EMSA; 0-500 nM Cas6, 70 C, 250 mM KCl, 1.5 mM MgCl2; settings: tags: N-terminal 6xHis; label: 32P uniform
Method: Figure 3: FIG. 3. Identification of the site of PfCas6 cleavage within the CRISPR repeat RNA. (A) The site of PfCas6 cleavage within the CRISPR repeat RNA was mapped by incubating 5' end labeled repeat RNA with PfCas6 nuclease and comparing the size of the 5' RNA cleavage product (arrow) with RNAse T1 (T1) and alkaline hydrolysis (OH) sequence ladders. (B) Potential secondary structure of P. furiosus repeat RNA (SEQ ID No: 238) with cleavage site indicated. (C) Analysis of cleavage of wild-type and cleavage site mutant (AA to GG) repeat RNAs with increasing concentrations (0, 1, 50, 200, and 500 nM) of PfCas6. (D) Native gel mobility shift analysis of wild-type and mutant repeat RNAs with increasing concentrations of PfCas6. The positions of the free (RNA) and protein-bound (RNP) RNAs are indicated. 5' and 3' cleavage products are indicated in both C and D. The sizes of RNA markers (M) are indicated in A and C.
Typically, identical reaction conditions were used to assay the ability of PfCas6 protein to bind to and to cleave substrate RNAs. These reactions were initiated by incubating 0.05 μmol of ^32P-radiolabeled RNAs (either uniformly or 5'-end-labeled) with up to 1 (as indicated in the figure legends) of PfCas6 protein in 20 mM HEPES-KOH (pH 7.0), 250 mM KCl, 0.75 mM DTT, 1.5 mM MgCl_2, 5 μg of E. coli tRNA, and 10% glycerol in a 20-μL reaction volume for 30 minutes at 70° C. […]

PfCas6 (PF1131) [6] = target: T1, PfCas6 (PF1131); assay: EMSA; affinity similar to 5' cleavage product; settings: tags: N-terminal 6xHis; label: 32P
Method: as §1, §2

PfCas6 (PF1131) [7] = target: T1, PfCas6 (PF1131); assay: EMSA; gel-purified; up to 500 nM; settings: tags: N-terminal 6xHis; label: 32P uniform
Method: as §1, §2

PfCas6 (PF1131) [8] = target: T1, PfCas6 (PF1131); assay: EMSA; binding to the 5' cleavage product formed during incubation; settings: tags: N-terminal 6xHis; label: 32P 5' or uniform
Method: as §1, §2

## GGGAAGACCAAAAUAGAAUUGAAAG (ssRNA) [del. 1-8]
PfCas6 (PF1131) [1]
  binding result: no binding

## GGGUUACAAUAAGACCAAAAUAGAAAACUUUC (ssRNA) [sub. 23-30]
PfCas6 (PF1131) [2]; label: 32P uniform
  binding result: binds

## GUUACAAUAAGACCAAAAUAGAAUUGAAAG (ssRNA) [CRISPR repeat RNA]
PfCas6 (PF1131) [3]
  binding result: binds
PfCas6 K52A
  activity: > 40 fold reduction vs wild type
PfCas6 Y31F
  activity: ~2 fold reduction vs wild type
PfCas6 K52E
  activity: > 150 fold reduction vs wild type

## GGGCAAUGUUAAAGACCAAAAUAGAAUUGAAAG (ssRNA) [sub. 1-8]
PfCas6 (PF1131) [1]
  binding result: no binding

## GTTACAATAAGACCAAAATAGAATTGAAAG (ssDNA, [none]) [DNA repeat]
PfCas6 (PF1131) [4]
  binding result: no binding

## GGGUUACAAUAAGACCAAAAUAGGGUUGAAAG (ssRNA) [AA to GG cleavage site mutant repeat]
PfCas6 (PF1131) [5]
  binding result: binds

## GUUACAAUAAGA (ssRNA) [repeat nt 1-12]
PfCas6 (PF1131) [6]
  binding result: binds

B1: guide + first part of repeat (panel c) (ssRNA)
RNA: GGGAUUGAAAGUUGUAGUAUGCGGUCCUUGCGGCUGAGAGCACUUCAGGUUACAAUAAGACCAAAAUAGA
PfCas6 (PF1131) [2]; label: 5' 32P
  binding result: binds

## AUUGAAAG (ssRNA) [3' cleavage product (repeat nt 23-30)]
PfCas6 (PF1131) [7]
  binding result: no binding

## AUUGAAAGUUGUAGUAUGCGGUCCUUGCGGCUGAGAGCACUUCAG (ssRNA) [last 8 nt of repeat + guide]
PfCas6 (PF1131) [4]
  binding result: no binding

B2: repeat-guide-repeat (R-g-R) (ssRNA)
RNA: GGGUUCCAAUAAGACUACAAAAGAAUUGAAAGUUGUAGUAUGCGGUCCUUGCGGCUGAGAGCACUUCAGGUUCCAAUAAGACUACCAAAAGAAUUGAAAG
PfCas6 (PF1131) [8]
  binding result: binds

## GGGUUACAAUAAGACCAAAAUAG (ssRNA) [del. 23-30]
PfCas6 (PF1131) [2]; label: 32P uniform
  binding result: binds
